Target: RNAP-SigA holoenzyme (Mycobacterium tuberculosis, UniProt P9WGZ1;P9WGY9;P9WGY7;P9WGI1 1-347;1-1178;1-1316;1-528)
Experiment: EMSA; 100-200 nM RNAP, heparin
Conditions: protein: recombinant; chain copies: 2;1;1;1; blunt

Chain of RNAP-SigA holoenzyme (P9WGZ1 whole entry, chain 1 of 4): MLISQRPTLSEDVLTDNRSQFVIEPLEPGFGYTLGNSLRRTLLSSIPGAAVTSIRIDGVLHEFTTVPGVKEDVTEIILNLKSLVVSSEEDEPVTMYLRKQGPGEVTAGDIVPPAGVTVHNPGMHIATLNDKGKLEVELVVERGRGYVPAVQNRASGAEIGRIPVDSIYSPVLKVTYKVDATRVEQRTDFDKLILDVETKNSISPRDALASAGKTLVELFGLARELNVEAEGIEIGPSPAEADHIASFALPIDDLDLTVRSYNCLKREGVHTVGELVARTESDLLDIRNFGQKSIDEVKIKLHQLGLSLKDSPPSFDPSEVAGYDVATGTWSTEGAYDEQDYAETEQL
Chain of RNAP-SigA holoenzyme (P9WGY9 whole entry, chain 2 of 4): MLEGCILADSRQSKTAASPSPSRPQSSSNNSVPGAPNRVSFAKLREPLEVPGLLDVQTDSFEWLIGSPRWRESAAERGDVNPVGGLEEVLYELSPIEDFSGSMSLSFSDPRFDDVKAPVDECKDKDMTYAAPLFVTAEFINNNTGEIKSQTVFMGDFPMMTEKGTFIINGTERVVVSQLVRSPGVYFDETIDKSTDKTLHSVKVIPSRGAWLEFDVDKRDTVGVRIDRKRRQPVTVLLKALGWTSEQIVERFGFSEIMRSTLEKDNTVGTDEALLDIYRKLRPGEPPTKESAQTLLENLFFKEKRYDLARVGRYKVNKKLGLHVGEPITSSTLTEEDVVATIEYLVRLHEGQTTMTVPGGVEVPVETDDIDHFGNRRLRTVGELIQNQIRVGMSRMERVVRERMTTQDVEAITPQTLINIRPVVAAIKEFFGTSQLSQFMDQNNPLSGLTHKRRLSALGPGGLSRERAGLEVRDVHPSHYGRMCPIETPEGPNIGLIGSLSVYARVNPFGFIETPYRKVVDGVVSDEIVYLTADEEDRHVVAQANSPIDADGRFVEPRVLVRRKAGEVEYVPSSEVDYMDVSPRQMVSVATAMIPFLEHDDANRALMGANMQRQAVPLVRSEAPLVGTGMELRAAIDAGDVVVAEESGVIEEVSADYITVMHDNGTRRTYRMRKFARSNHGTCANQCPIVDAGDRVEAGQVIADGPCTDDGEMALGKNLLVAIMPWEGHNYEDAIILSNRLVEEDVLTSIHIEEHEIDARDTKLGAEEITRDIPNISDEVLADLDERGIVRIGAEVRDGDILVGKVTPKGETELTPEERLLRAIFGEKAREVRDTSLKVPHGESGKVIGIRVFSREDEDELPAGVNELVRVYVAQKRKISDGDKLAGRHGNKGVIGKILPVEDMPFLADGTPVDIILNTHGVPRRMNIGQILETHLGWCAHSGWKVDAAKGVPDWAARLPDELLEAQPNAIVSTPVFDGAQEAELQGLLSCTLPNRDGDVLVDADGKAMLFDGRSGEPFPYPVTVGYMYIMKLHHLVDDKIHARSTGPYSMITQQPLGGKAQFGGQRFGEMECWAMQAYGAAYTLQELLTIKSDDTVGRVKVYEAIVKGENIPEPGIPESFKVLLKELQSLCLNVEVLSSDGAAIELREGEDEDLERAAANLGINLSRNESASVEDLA
Chain of RNAP-SigA holoenzyme (P9WGY7 whole entry, chain 3 of 4): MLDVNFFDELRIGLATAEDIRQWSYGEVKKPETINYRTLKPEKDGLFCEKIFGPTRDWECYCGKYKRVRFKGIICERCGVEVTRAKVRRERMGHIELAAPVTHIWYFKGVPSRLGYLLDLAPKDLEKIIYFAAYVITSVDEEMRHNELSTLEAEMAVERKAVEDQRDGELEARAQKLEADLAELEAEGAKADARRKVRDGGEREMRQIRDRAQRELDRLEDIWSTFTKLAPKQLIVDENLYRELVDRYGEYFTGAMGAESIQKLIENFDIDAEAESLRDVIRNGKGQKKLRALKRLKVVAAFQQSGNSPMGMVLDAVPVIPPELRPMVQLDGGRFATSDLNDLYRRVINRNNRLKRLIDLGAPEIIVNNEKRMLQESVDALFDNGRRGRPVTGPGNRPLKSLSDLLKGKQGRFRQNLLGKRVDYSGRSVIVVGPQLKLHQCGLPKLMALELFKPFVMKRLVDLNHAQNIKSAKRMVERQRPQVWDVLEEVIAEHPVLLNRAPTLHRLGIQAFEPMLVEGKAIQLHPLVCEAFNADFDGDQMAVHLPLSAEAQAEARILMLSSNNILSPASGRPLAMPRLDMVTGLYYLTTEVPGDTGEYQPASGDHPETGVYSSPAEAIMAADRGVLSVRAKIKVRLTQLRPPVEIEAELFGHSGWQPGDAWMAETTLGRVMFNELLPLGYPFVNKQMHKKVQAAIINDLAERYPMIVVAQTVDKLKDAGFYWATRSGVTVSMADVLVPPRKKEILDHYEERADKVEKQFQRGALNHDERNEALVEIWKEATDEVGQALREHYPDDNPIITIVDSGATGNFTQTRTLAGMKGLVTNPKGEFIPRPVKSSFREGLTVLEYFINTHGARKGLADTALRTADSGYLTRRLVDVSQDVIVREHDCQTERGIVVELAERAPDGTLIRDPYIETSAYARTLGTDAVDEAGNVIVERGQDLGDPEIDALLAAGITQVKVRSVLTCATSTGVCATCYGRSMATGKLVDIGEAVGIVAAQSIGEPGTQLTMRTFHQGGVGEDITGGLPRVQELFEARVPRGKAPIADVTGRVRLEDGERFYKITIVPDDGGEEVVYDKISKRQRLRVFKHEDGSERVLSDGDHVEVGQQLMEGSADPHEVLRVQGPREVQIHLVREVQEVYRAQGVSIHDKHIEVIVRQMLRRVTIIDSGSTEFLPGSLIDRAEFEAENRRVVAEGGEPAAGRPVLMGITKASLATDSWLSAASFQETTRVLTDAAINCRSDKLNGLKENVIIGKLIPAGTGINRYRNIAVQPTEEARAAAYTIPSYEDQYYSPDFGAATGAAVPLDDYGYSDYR
Chain of RNAP-SigA holoenzyme (P9WGI1 whole entry, chain 4 of 4): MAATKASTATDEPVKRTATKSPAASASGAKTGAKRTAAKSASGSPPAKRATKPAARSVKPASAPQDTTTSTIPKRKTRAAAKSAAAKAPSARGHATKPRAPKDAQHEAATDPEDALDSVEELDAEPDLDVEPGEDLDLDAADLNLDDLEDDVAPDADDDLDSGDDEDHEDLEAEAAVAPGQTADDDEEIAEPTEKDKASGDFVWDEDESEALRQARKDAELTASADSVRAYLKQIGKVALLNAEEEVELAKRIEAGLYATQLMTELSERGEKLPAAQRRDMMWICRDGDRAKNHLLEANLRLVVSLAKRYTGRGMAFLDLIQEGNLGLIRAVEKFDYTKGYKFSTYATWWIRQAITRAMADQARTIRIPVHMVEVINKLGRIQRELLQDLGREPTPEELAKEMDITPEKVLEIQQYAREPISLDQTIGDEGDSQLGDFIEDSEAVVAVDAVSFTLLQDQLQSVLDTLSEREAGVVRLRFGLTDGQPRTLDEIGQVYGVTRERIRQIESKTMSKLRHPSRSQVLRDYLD

B1: rrnAP3 promoter (dsDNA)
DNA 1: CTATGGATGACCGAACCTGGTCTTGACTCCATTGCCGGATTTGTATTAGACTGGCAGGGTCGCCCCGAAGCGGGCGGAAACAAGCAAGCGTGTTGTTTGAGAACTC
DNA 2: GAGTTCTCAAACAACACGCTTGCTTGTTTCCGCCCGCTTCGGGGCGACCCTGCCAGTCTAATACAAATCCGGCAATGGAGTCAAGACCAGGTTCGGTCATCCATAG
Does B1 bind?
Result: binds
